In patent KR20140138533A (dated 2014):

Target: T1, 재조합 인슐린 유사 성장인자-1 수용체 (IGF-1R, R&D system, 391-GR), extracellular domain Met1-Asn932 (human, UniProt P08069 31-932)
T1 construct: range 1-932; Bought recombinant protein; also called 재조합 IGF-1R; hIGF-1R
Test: SPR (BiaCore T200), MKJP2 captured on anti-human IgG Fc CM5 chip, IGF-1R injected at 0.78-12.5 nM

T1 sequence (P08069 31-932 limits assumed): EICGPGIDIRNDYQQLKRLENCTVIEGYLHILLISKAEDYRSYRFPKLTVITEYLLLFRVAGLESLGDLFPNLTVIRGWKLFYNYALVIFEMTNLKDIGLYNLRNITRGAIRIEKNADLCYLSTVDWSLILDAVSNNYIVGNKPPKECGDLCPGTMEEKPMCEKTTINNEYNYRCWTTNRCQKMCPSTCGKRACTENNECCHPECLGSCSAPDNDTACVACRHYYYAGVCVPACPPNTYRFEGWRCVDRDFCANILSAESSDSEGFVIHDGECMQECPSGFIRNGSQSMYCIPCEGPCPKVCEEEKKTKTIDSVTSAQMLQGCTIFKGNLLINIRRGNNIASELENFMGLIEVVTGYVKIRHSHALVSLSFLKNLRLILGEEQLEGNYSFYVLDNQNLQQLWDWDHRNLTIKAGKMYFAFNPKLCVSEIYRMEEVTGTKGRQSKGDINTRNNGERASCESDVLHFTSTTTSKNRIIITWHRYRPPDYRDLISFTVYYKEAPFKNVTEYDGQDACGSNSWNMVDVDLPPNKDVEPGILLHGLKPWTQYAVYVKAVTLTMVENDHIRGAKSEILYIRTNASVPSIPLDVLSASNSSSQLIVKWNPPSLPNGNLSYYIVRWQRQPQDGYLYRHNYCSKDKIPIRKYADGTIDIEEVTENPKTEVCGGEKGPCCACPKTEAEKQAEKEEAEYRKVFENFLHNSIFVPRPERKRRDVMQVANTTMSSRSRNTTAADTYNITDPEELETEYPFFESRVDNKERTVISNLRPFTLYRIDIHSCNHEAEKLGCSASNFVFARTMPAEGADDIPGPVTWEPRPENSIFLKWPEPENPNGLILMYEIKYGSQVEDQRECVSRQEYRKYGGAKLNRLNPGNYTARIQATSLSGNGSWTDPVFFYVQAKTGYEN

- Kd: 0.173 nM
B1: 인간 단일클론항체 MKJP2 (전체 IgG) (antibody, V domains shown)
VH: EVQLLESGGGLAQPGGSLRLSCAASGFTFSGYAMSWVRQAPGKGLEWVSAISSDGGSTYYADSVKGRFTISRDNSKNTLYLQMNSLRAEDTAVYYCARDPWFSRWTAFDYWGQGTLVTVSS
VL: QSVLTQPPSASGTPGQRVTISCSGSSSNIGNNAVNWYQQLPGTAPKLLIYSNSKRPSGVPDRFSGSKSGTSASLAISGLRSEDEADYYCGTWDYSLSGYVFGGGTKLTVLG
notes: Variable regions were cloned into the vectors E-A12H-ID (heavy) and pEA12L-ID (light); also called MKJP2 항체; 항 IGF-1R 항체 MKJP2
